Reference: PMC5693750 (Journal of molecular biology, 2017)

B1: Swi6 (full-length, wild type) (natural protein, S. pombe, UniProt P40381 1-328, looked up)
chain: MKKGGVRSYRRSSTSKRSVIDDDSEPELPSMTKEAIASHKADSGSSDNEVESDHESKSSSKKLKENAKEEEGGEEEEEDEYVVEKVLKHRMARKGGGYEYLLKWEGYDDPSDNTWSSEADCSGCKQLIEAYWNEHGGRPEPSKRKRTARPKKPEAKEPSPKSRKTDEDKHDKDSNEKIEDVNEKTIKFADKSQEEFNENGPPSGQPNGHIESDNESKSPSQKESNESEDIQIAETPSNVTPKKKPSPEVPKLPDNRELTVKQVENYDSWEDLVSSIDTIERKDDGTLEIYLTWKNGAISHHPSTITNKKCPQKMLQFYESHLTFRENE
B2: Chp2 (full-length, wild type) (natural protein, S. pombe, UniProt O42934 1-380, looked up)
chain: MVKSADLDLMNSIISESDENFSPPPFTVEEAENSINNKSSTASLESPQNGSWHPSLYGLSVPEKTHIQNSLDLYSHGNSGSQKTHNVSFSCEIRKVKSSKLSPISNMEDSEDKKEEDESSSYKNEFKSSSSASVSSNFEKTSGSDDHNSQSPVPLNEGFEYIASSGSEDKNSDEEFAVEMILDSRMKKDGSGFQYYLKWEGYDDPSDNTWNDEEDCAGCLELIDAYWESRGGKPDLSSLIRLTRSRARSSNEASYVEKDESSNSDDSISYKRRRSRNAANRITDYVDSDLSESSMKEKQSKIEKYMKSDKSSKNFKPPFQKKSWEDLVDCVKTVQQLDNGKLIAKIKWKNGYVSTHDNIIIHQKCPLKIIEYYEAHIKFT

Assays:
[1] = molecular target: H3Kc9me3 mononucleosome (Xenopus laevis); experiment: fluorescence polarisation
[2] = molecular target: H3Kc9me3 mononucleosome (Xenopus laevis); experiment: AUC
[3] = molecular target: T1, Swi6 chromoshadow domain (CSD) (S. pombe, UniProt P40381 261-328); experiment: NMR titration
T1 sequence: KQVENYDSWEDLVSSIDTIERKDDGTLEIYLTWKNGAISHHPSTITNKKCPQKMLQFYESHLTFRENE

AUC [4] = molecular target: the molecule itself; experiment: AUC
H3K9me3 tail peptide = experiment: fluorescence polarisation
[5] = molecular target: Unmethylated H3 tail peptide; experiment: fluorescence polarisation
[6] = molecular target: B1; experiment: fluorescence polarisation
[7] = molecular target: B2; experiment: fluorescence polarisation
AUC [8] = molecular target: the molecule itself; experiment: AUC; remark: listed apart in the source

## Chp2 I370E (from UniProt O42934 1-380) (natural protein)
[1]
  fold weaker Kd than wild-type Chp2: 3 fold

## Swi6 (full-length, wild type) (from UniProt P40381 1-328) (natural protein)
[1]
  Kd: 0.13 µM

## Swi6 L315D (from UniProt P40381 1-328) (natural protein)
[1]
  fold weaker Kd than wild-type Swi6: 8.5 fold

## Chp2 (full-length, wild type) (from UniProt O42934 1-380) (natural protein)
[2]
  stoichiometry N: 4
[1]
  Kd: 0.43 µM

## RAVTQYLLHLLQKARPTSQ [Clr3 peptide]
[3]
  Kd: 68 ± 15 µM
  Kd fitted for residue E280: 62.5 ± 15.4
  Kd fitted for residue H321: 51.9 ± 7.84

## B1
AUC [4]
  binding result: binds
H3K9me3 tail peptide
  fold weaker binding than Chp2 to the same peptide: 5.5 fold
  fold weaker binding than Swi6 to H3Kc9me3 nucleosomes: 77 fold
[5]
  fold weaker binding than to the H3K9me3 tail peptide: > 10 fold

## EKAKTSNVCVCIPCKSAEQ [Sgo1 peptide]
[6]
  Kd: 6.6 ± 2.1 µM
[7]
  Kd: 58.5 µM

## B2
AUC [8]
  Kd: 183 µM
H3K9me3 tail peptide
  Kd: 1.85 µM
[5]
  fold weaker binding than to the H3K9me3 tail peptide: > 10 fold
